Five molecules from patent publication EP1230350B1, “SITE-DIRECTED MUTAGENESIS OF ESCHERICHIA COLI PHYTASE” (CORNELL RESEARCH FOUNDATION, INC., priority 1999, dated 2001) can be followed below.

Where a chain is given by its changes, count along the chain named. Numbers in names are those of the source. Marks after values point to notes of the source that are not given here.

The term Km denotes the substrate concentration at which the rate is half of its maximum. A word on the kcat: it is the number of substrate molecules converted per active site and unit of time at saturation.

What all share (assay): Enzyme kinetics of acid phosphatase/phytase (pNPP and sodium phytate as substrates)
Series [1] has as its target T1, Escherichia coli acid phosphatase/phytase (appA) Mutant U (construct E2P2P3K2: C200N, D207N, S211N), SEQ. ID. No. 3, expressed in Pichia pastoris (Escherichia coli, UniProt P07102, C200N/D207N/S211N).
T1 construct: The coding region starts at the codon 20 and ends at the codon 432; alpha-factor secretion leader of vector pPICZαA (own knowledge of the vector); made in house; host or cells: Pichia pastoris X33
T1 sequence (P07102 20-432 C200N/D207N/S211N): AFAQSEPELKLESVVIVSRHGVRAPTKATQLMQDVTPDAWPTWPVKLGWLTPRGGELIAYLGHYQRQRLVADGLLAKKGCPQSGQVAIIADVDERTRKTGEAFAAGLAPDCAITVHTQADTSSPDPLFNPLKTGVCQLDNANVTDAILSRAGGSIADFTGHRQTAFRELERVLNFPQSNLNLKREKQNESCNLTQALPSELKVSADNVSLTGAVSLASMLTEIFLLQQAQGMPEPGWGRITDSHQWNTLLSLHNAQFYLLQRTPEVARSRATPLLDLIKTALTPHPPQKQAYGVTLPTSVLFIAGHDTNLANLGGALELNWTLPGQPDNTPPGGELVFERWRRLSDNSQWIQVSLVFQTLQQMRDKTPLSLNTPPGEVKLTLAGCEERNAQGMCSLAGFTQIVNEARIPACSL
The class given is biochemical. The method, then:
The expressed r-AppA and mutant enzymes in the medium supernatant were subjected to a two-step ammonium sulfate precipitation (25% and 75%) as previously described (Rodriguez, E. et al., Biochem. Biophys. Res. Commun. 257:117-23 (1999)). The suspension of the first round was centrifuged at 4°C, 25,000 x g for 20 min. The pellet of the second round was suspended in 10 ml and dialyzed overnight against 25 mM Tris-HCl, pH 7. After dialysis, the protein extract was loaded onto a DEAE (diethylaminoethyl)-Sepharose column (Sigma, St. Louis, MO) equilibrated with 25 mM Tris-HCl, pH 7. The bound protein was eluted with 1 M NaCl in 25 mM Tris-CH1, pH 7. […] Phytase activity was measured using sodium phytate as the substrate (Rodriguez, E. et al., Biochem. Biophys. Res. Commun. 257:117-23 (1999); Piddington, C.S. et al., Gene 133:55-62 (1993)). […] Free inorganic phosphorus was measured at 820 nm after 0.2 ml of the sample was mixed with 1.8 ml of H2O and 2 ml of a solution containing 0.6 M H2SO4, 2% ascorbic acid, and 0.5% ammonium molybdate, followed by incubation for 20 min at 50°C. […] The released p-nitrophenol was measured at 405 nm after 0.1 ml of the sample was mixed with 0.9 ml of 1 M NaOH and incubated for 10 min. […] After the samples were cooled on ice for 30 min, their remaining phytase activies were measured as described above. […]

Substrate in series [2]: O=P(O)(O)OC1C(OP(=O)(O)O)C(OP(=O)(O)O)C(OP(=O)(O)O)C(OP(=O)(O)O)C1OP(=O)(O)O
In kind it is biochemical, Escherichia coli. The conditions noted are these: 0.25 M glycine-HCl, pH 2.5, 37°C, Lineweaver-Burk plot. How it is done:
(§1) The expressed r-AppA and mutant enzymes in the medium supernatant were subjected to a two-step ammonium sulfate precipitation (25% and 75%) as previously described (Rodriguez, E. et al., Biochem. Biophys. Res. Commun. 257:117-23 (1999)). The suspension of the first round was centrifuged at 4°C, 25,000 x g for 20 min. The pellet of the second round was suspended in 10 ml and dialyzed overnight against 25 mM Tris-HCl, pH 7. After dialysis, the protein extract was loaded onto a DEAE (diethylaminoethyl)-Sepharose column (Sigma, St. Louis, MO) equilibrated with 25 mM Tris-HCl, pH 7. The bound protein was eluted with 1 M NaCl in 25 mM Tris-CH1, pH 7. […] Phytase activity was measured using sodium phytate as the substrate (Rodriguez, E. et al., Biochem. Biophys. Res. Commun. 257:117-23 (1999); Piddington, C.S. et al., Gene 133:55-62 (1993)). The enzyme was diluted in 0.25 M glycine-HCl, pH 2.5, and an equal volume of substrate solution containing 11 mM sodium phytate (Sigma) was added. After incubation of the sample for 15 min at 37°C, the reaction was stopped by addition of an equal volume of 15% trichloroacetic acid. Free inorganic phosphorus was measured at 820 nm after 0.2 ml of the sample was mixed with 1.8 ml of H2O and 2 ml of a solution containing 0.6 M H2SO4, 2% ascorbic acid, and 0.5% ammonium molybdate, followed by incubation for 20 min at 50°C. One phytase unit was defined as the amount of activity that releases 1 µmol of inorganic phosphorus from sodium phytate per minute at 37°C. The final concentrations of sodium phytate used for the enzyme kinetics were: 0.1, 0.25, 0.5, 0.75, 1, 2.5, 10, and 25 mM. Acid phosphatase activity was assayed using pNPP (Sigma) at a final concentration of 25 mM (Smith, R. et al., Protein Engineerine 5:35-41 (1992)). To 50 µl of enzyme (40 nmol), 850 µl of 250 mM glycine-HCl, pH 2.5, were added. After 5 min of incubation at 37°C, 100 µl of pNPP was added. The released p-nitrophenol was measured at 405 nm after 0.1 ml of the sample was mixed with 0.9 ml of 1 M NaOH and incubated for 10 min. The final concentrations ofpNPP used for the enzyme kinetics were: 0.1, 0.2, 0.75, 1, 2.5, 10, and 25 mM. One unit of acid phosphatase/phytase activity was defined as the amount of enzyme catalyzing the formation of 1 µmol of p-nitrophenol per minute. Before the thermostability assay, the enzyme (2 mg/ml) was diluted 1:400 in 0.2 M glycine-HCl, pH 2.5. The diluted samples were incubated for 15 min at 25, 55, 80, and 90°C. After the samples were cooled on ice for 30 min, their remaining phytase activies were measured as described above. Deglycosylation of purified enzymes was done by incubating 100 µg of total protein with 0.5 IU endoglycosidase Hf (Endo Hf) for 4 h at 37°C according to the manufacturer's instructions (New England Biolabs, Beverly, MA). Sodium dodecyl sulfate-polyacrylamide gel electrophoresis (SDS-PAGE), 15% (w/v) gel was performed as previously described (Laenunli, U.K., Nature 227:680-85 (1970)). Protein concentrations were determined using the Lowry method (Lowry, O.H. et al., J. Biol. Chem. 193:265-75 (1951)).
(§2) The Km value for pNPP (p-nitrophenyl phosphate) was reduced by one-half and the one for sodium phytate by 70% with Mutant U, versus r-AppA (P < 0.05) (Table 4).

Substrate in series [3]: O=[N+]([O-])c1ccc(OP(=O)(O)O)cc1
In kind it is biochemical, Escherichia coli. The conditions noted are these: 0.25 M glycine-HCl, pH 2.5, 37°C, Lineweaver-Burk plot. How it is done: as §1, §2

As to `O=P(O)(O)O[C@H]1[C@H](OP(=O)(O)O)[C@@H](OP(=O)(O)O)[C@H](OP(=O)(O)O)[C@@H](OP(=O)(O)O)[C@H]1OP(=O)(O)O` [Na-Phytate, sodium phytate], the “increase in apparent catalytic efficiency kcat/Km for sodium phytate than that of r-AppA” value in series [1] (Mutant U versus r-AppA) came to 5.2 fold. Moreover, the “Km value for sodium phytate reduced, versus r-AppA” value in series [1] (Mutant U versus r-AppA (P < 0.05)) came out at 70%.

B1: Escherichia coli acid phosphatase/phytase (appA) Mutant Y (construct E2A1P2P3K2: A131N, V134N, C200N, D207N, S211N), expressed in Pichia pastoris (Escherichia … (protein)
chain: T1 sequence (P07102 20-432 C200N/D207N/S211N) with A112N, V115N
notes: The coding region starts at the codon 20 and ends at the codon 432; alpha-factor secretion leader of vector pPICZαA (own knowledge of the vector); made in house; host or cells: Pichia pastoris X33
As for B1, in series [2] (other: Mutant Y), the Km stood at 2030 ± 190 µM, the catalytic constant (kcat) is recorded as 3431 ± 41^* min^-1 and the kcat/Km entry was “(1.69 ± 0.21) x 10^6* min^-1 M^-1”. In series [3] (other: Mutant Y), the Km turned out to be 3180 ± 390 µM, the kcat turned out to be 787 ± 6.7 min⁻¹ and the kcat/Km result is given as “(2.5 ± 0.17) x 10^5 min^-1 M^-1”.

B2: Escherichia coli acid phosphatase/phytase (appA), wild type r-AppA, SEQ. ID. No. 1, expressed in Pichia pastoris (Escherichia coli K-12) (protein)
chain: T1 sequence (P07102 20-432 C200N/D207N/S211N) with N181C, N188D, N192S
notes: as for B1
For the molecule B2, in series [2] (other: r-AppA), the Km was found to be 1950 ± 250 µM, the catalytic constant (kcat) amounted to 2148 ± 33 min⁻¹ and the kcat/Km result was “(1.11 ± 0.13) x 10^6 min^-1 M^-1”. In addition, in series [3] (other: r-AppA), the Michaelis-Menten constant (Km) was found to be 3660 ± 440 µM, the catalytic constant (kcat) was found to be 752 ± 7.9 min⁻¹ and the kcat/Km result is recorded as “(2.0 ± 0.18) x 10^5 min^-1 M^-1”.

B3: Escherichia coli acid phosphatase/phytase (appA) Mutant U (construct E2P2P3K2: C200N, D207N, S211N), SEQ. ID. No. 3, expressed in Pichia pastoris (Escherichia … (protein)
chain: T1 sequence (P07102 20-432 C200N/D207N/S211N)
notes: as for B1
For the molecule B3, in series [2] (other: Mutant U), the Km stood at 580 ± 80 µM, the turnover number (kcat) is given as 4003 ± 56^* min^-1 and the kcat/Km result is “(6.90 ± 0.70) x 10^6* min^-1 M^-1”. In series [3] (other: Mutant U), the Michaelis-Menten constant (Km) came to 1860 ± 35000 µM, the turnover number (kcat) is 1073 ± 13^* min^-1 and the kcat/Km entry was “(5.8 ± 0.37) x 10^5* min^-1 M^-1”.

B4: Escherichia coli acid phosphatase/phytase (appA) Mutant R (construct E2A1P3K2: A131N, V134N, D207N, S211N), expressed in Pichia pastoris (Escherichia coli … (protein)
chain: T1 sequence (P07102 20-432 C200N/D207N/S211N) with A112N, V115N, N181C
notes: as for B1
In the case of B4, in series [2] (other: Mutant R), the Michaelis-Menten constant (Km) was 3070 ± 260 µM, the turnover number (kcat) was 1657 ± 23^* min^-1 and the kcat/Km result is “(0.54 ± 0.09) x 10^6* min^-1 M^-1”. Further, in series [3] (other: Mutant R), the Km was determined as 7870 ± 840 µM, the kcat is listed as 390 ± 5.9^* min^-1 and the kcat/Km result is on record as “(0.5 ± 0.07) x 10^5* min^-1 M^-1”.
